Reference: patent US20090099029A1, “Methods and substrates for conducting assays” (Invitrogen Corporation, priority 2005, published 2009)
Where a chain is given by its changes, count along the chain named.

B1: INSRR (protein)
chain: YGKKRNRTLYASVNPEYFSASDMYVPDEWEVPREQISIIRELGQGSFGMVYEGLARGLEAGEESTPVALKTVNELASPRECIEFLKEASVMKAFKCHHVVRLLGVVSQGQPTLVIMELMTRGDLKSHLRSLRPEAENNPGLPQPALGEMIQMAGEIADGMAYLAANKFVHRDLAARNCMVSQDFTVKIGDFGMTRDVYETDYYRKGGKGLLPVRWMAPESLKDGIFTTHSDVWSFGVVLWEIVTLAEQPYQGLSNEQVLKFVMDGGVLEELEGCPLQLQELMSRCWQPNPRLRPSFTHILDSIQEELRPSFRLLSFYYSPECRGARGSLPTTDAEPDSSPTPRDCSPQNGGPGH
modifications: left off: a dimerising Fc or GST
B2: RET (protein)
chain: HCYHKFAHKPPISSAEMTFRRPAQAFPVSYSSSGARRPSLDSMENQVSVDAFKILEDPKWEFPRKNLVLGKTLGEGEFGKVVKATAFHLKGRAGYTTVAVKMLKENASPSELRDLLSEFNVLKQVNHPHVIKLYGACSQDGPLLLIVEYAKYGSLRGFLRESRKVGPGYLGSGGSRNSSSLDHPDERALTMGDLISFAWQISQGMQYLAEMKLVHRDLAARNILVAEGRKMKISDFGLSRDVYEEDSYVKRSQGRIPVKWMAIESLFDHIYTTQSDVWSFGVLLWEIVTLGGNPYPGIPPERLFNLLKTGHRMERPDNCSEEMYRLMLQCWKQEPDKRPVFADISKDLEKMMVKRRDYLDLAASTPSDSLIYDDGLSEEETPLVDCNNAPLPRALPSTWIENKLYGMSDPNWPGESPVPLTRADGTNTGFPRYPNDSVYANWMLSPSAAKLMDTFDS
modifications: left off: a dimerising Fc or GST
B3: MET (protein)
chain: KKRKQIKDLGSELVRYDARVHTPHLDRLVSARSVSPTTEMVSNESVDYRATFPEDQFPNSSQNGSCRQVQYPLTDMSPILTSGDSDISSPLLQNTVHIDLSALNPELVQAVQHVVIGPSSLIVHFNEVIGRGHFGCVYHGTLLDNDGKKIHCAVKSLNRITDIGEVSQFLTEGIIMKDFSHPNVLSLLGICLRSEGSPLVVLPYMKHGDLRNFIRNETHNPTVKDLIGFGLQVAKGMKYLASKKFVHRDLAARNCMLDEKFTVKVADFGLARDMYDKEYYSVHNKTGAKLPVKWMALESLQTQKFTTKSDVWSFGVLLWELMTRGAPPYPDVNTFDITVYLLQGRRLLQPEYCPDPLYEVMLKCWHPKAEMRPSFSELVSRISAIFSTFIGEHYVHVNATYVNVKCVAPYPSLLSSEDNADDEVDTRPASFWETS
modifications: left off: small tags and cut ends
B4: KIT (protein)
chain: TYKYLQKPMYEVQWKVVEEINGNNYVYIDPTQLPYDHKWEFPRNRLSFGKTLGAGAFGKVVEATAYGLIKSDAAMTVAVKMLKPSAHLTEREALMSELKVLSYLGNHMNIVNLLGACTIGGPTLVITEYCCYGDLLNFLRRKRDSFICSKQEDHAEAALYKNLLHSKESSCSDSTNEYMDMKPGVSYVVPTKADKRRSVRIGSYIERDVTPAIMEDDELALDLEDLLSFSYQVAKGMAFLASKNCIHRDLAARNILLTHGRITKICDFGLARDIKNDSNYVVKGNARLPVKWMAPESIFNCVYTFESDVWSYGIFLWELFSLGSSPYPGMPVDSKFYKMIKEGFRMLSPEHAPAEMYDIMKTCWDADPLKRPTFKQIVQLIEKQISESTNHIYSNLANCSPNRQKPVVDHSVRINSVGSTASSSQPLLVHDDV
modifications: left off: small tags and cut ends
B5: MERTK (protein)
chain: KRVQETKFGNAFTEEDSELVVNYIAKKSFCRRAIELTLHSLGVSEELQNKLEDVVIDRNLLILGKILGEGEFGSVMEGNLKQEDGTSLKVAVKTMKLDNSSQREIEEFLSEAACMKDFSHPNVIRLLGVCIEMSSQGIPKPMVILPFMKYGDLHTYLLYSRLETGPKHIPLQTLLKFMVDIALGMEYLSNRNFLHRDLAARNCMLRDDMTVCVADFGLSKKIYSGDYYRQGRIAKMPVKWIAIESLADRVYTSKSDVWAFGVTMWEIATRGMTPYPGVQNHEMYDYLLHGHRLKQPEDCLDELYEIMYSCWRTDPLDRPTFSVLRLQLEKLLESLPDVRNQADVIYVNTQLLESSEGLAQGSTLAPLDLNIDPDSIIASCTPRAAISVVTAEVHDSKPHEGRYILNGGSEEWEDLTSAPSAAVTAEKNSVLPGERLVRNGVSWSHSSMLPLGSSLPDELLFADDSSEGSEVLM
modifications: left off: a dimerising Fc or GST
B6: PDGFRB (protein)
chain: MLWQKKPRYEIRWKVIESVSSDGHEYIYVDPMQLPYDSTWELPRDQLVLGRTLGSGAFGQVVEATAHGLSHSQATMKVAVKMLKSTARSSEKQALMSELKIMSHLGPHLNVVNLLGACTKGGPIYIITEYCRYGDLVDYLHRNKHTFLQHHSDKRRPPSAELYSNALPVGLPLPSHVSLTGESDGGYMDMSKDESVDYVPMLDMKGDVKYADIESSNYMAPYDNYVPSAPERTCRATLINESPVLSYMDLVGFSYQVANGMEFLASKNCVHRDLAARNVLICEGKLVKICDFGLARDIMRDSNYISKGSTFLPLKWMAPESIFNSLYTTLSDVWSFGILLWEIFTLGGTPYPELPMNEQFYNAIKRGYRMAQPAHASDEIYEIMQKCWEEKFEIRPPFSQLVLLLERLLGEGYKKKYQQVDEEFLRSDHPAILRSQARLPGFHGLRSPLDTSSVLYTAVQPNEGDNDYIIPLPDPKPEVADEGPLEGSPSLASSTLNEVNTSSTISCDSPLEPQDEPEPEPQLELQVEPEPELEQLPDSGCPAPRAEAEDSFL
modifications: left off: small tags and cut ends
B7: FLT1(VEGFR1) (protein)
chain: RKMKRSSSEIKTDYLSIIMDPDEVPLDEQCERLPYDASKWEFARERLKLGKSLGRGAFGKVVQASAFGIKKSPTCRTVAVKMLKEGATASEYKALMTELKILTHIGHHLNVVNLLGACTKQGGPLMVIVEYCKYGNLSNYLKSKRDLFFLNKDAALHMEPKKEKMEPGLEQGKKPRLDSVTSSESFASSGFQEDKSLSDVEEEEDSDGFYKEPITMEDLISYSFQVARGMEFLSSRKCIHRDLAARNILLSENNVVKICDFGLARDIYKNPDYVRKGDTRLPLKWMAPESIFDKIYSTKSDVWSYGVLLWEIFSLGGSPYPGVQMDEDFCSRLREGMRMRAPEYSTPEIYQIMLDCWHRDPKERPRFAELVEKLGDLLQANVQQDGKDYIPINAILTGNSGFTYSTPAFSEDFFKESISAPKFNSGSSDDVRYVNAFKFMSLERIKTFEELLPNATSMFDDYQGDSSTLLASPMLKRFTWTDSKPKASLKIDLRVTSKSKESGLSDVSRPSFCHSSCGHVSEGKRRFTYDHAELERKIACCSPPPDYNSVVLYSTPPI
modifications: left off: a dimerising Fc or GST
B8: MUSK (protein)
chain: CCRRRKQWKNKKRESAAVTLTTLPSELLLDRLHPNPMYQRMPLLLNPKLLSLEYPRNNIEYVRDIGEGAFGRVFQARAPGLLPYEPFTMVAVKMLKEEASADMQADFQREAALMAEFDNPNIVKLLGVCAVGKPMCLLFEYMAYGDLNEFLRSMSPHTVCSLSHSDLSMRAQVSSPGPPPLSCAEQLCIARQVAAGMAYLSERKFVHRDLATRNCLVGENMVVKIADFGLSRNIYSADYYKANENDAIPIRWMPPESIFYNRYTTESDVWAYGVVLWEIFSYGLQPYYGMAHEEVIYYVRDGNILSCPENCPVELYNLMRLCWSKLPADRPSFTSIHRILERMCERAEGTVSV
modifications: left off: a dimerising Fc or GST
B9: FLT3 (protein)
chain: HKYKKQFRYESQLQMVQVTGSSDNEYFYVDFREYEYDLKWEFPRENLEFGKVLGSGAFGKVMNATAYGISKTGVSIQVAVKMLKEKADSSEREALMSELKMMTQLGSHENIVNLLGACTLSGPIYLIFEYCCYGDLLNYLRSKREKFHRTWTEIFKEHNFSFYPTFQSHPNSSMPGSREVQIHPDSDQISGLHGNSFHSEDEIEYENQKRLEEEEDLNVLTFEDLLCFAYQVAKGMEFLEFKSCVHRDLAARNVLVTHGKVVKICDFGLARDIMSDSNYVVRGNARLPVKWMAPESLFEGIYTIKSDVWSYGILLWEIFSLGVNPYPGIPVDANFYKLIQNGFKMDQPFYATEEIYIIMQSCWAFDSRKRPSFPNLTSFLGCQLADAEEAMYQNVDGRVSECPHTYQNRRPFSREMDLGLLSPQAQVEDS
modifications: left off: small tags and cut ends
B10: PDGFRA (protein)
chain: KQKPRYEIRWRVIESISPDGHEYIYVDPMQLPYDSRWEFPRDGLVLGRVLGSGAFGKVVEGTAYGLSRSQPVMKVAVKMLKPTARSSEKQALMSELKIMTHLGPHLNIVNLLGACTKSGPIYIITEYCFYGDLVNYLHKNRDSFLSHHPEKPKKELDIFGLNPADESTRSYVILSFENNGDYMDMKQADTTQYVPMLERKEVSKYSDIQRSLYDRPASYKKKSMLDSEVKNLLSDDNSEGLTLLDLLSFTYQVARGMEFLASKNCVHRDLAARNVLLAQGKIVKICDFGLARDIMHDSNYVSKGSTFLPVKWMAPESIFDNLYTTLSDVWSYGILLWEIFSLGGTPYPGMMVDSTFYNKIKSGYRMAKPDHATSEVYEIMVKCWNSEPEKRPSFYHLSEIVENLLPGQYKKSYEKIHLDFLKSDHPAVARMRVDSDNAYIGVTYKNEEDKLKDWEGGLDEQRLSADSGYIIPLPDIDPVPEEEDLGKRNRHSSQTSEESAIETGSSSSTFIKREDETIEDIDMMDDIGIDSSDLVEDSFL
modifications: left off: a dimerising Fc or GST
B11: PDGFRA, T674I (protein)
chain: B10 chain with T125I
modifications: left off: a dimerising Fc or GST
B12: IGF1R (protein)
chain: RKRNNSRLGNGVLYASVNPEYFSAADVYVPDEWEVAREKITMSRELGQGSFGMVYEGVAKGVVKDEPETRVAIKTVNEAASMRERIEFLNEASVMKEFNCHHVVRLLGVVSQGQPTLVIMELMTRGDLKSYLRSLRPEMENNPVLAPPSLSKMIQMAGEIADGMAYLNANKFVHRDLAARNCMVAEDFTVKIGDFGMTRDIYETDYYRKGGKGLLPVRWMSPESLKDGVFTTYSDVWSFGVVLWEIATLAEQPYQGLSNEQVLRFVMEGGLLDKPDNCPDMLFELMRMCWQYNPKMRPSFLEIISSIKEEMEPGFREVSFYYSEENKLPEPEELDLEPENMESVPLDPSASSSSLPLPDRHSGHKAENGPGPGVLVLRASFDERQPYAHMNGGRKNERALPLPQSSTC
modifications: left off: small tags and cut ends

test system: kinases of Table 6 on Myelin Basic Protein (MBP); test: Kinase assay using MBP substrate, ProQ Diamond stain (Table 6); assay type: biochemical; conditions: kinase printed on MBP-coated slide; 20 uM ATP, 30° C.; ProQ Diamond Microarray Stain; graded Strong/Weak/Negative
Procedure, shortened: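 Bovine dephosphorylated MBP coated on aldehyde- or epoxy-glass slides, kinases printed on top; reaction buffer pH 7.5 with 4 mM MgCl2, 20 uM ATP, 5% DMSO, ± inhibitor, at 30° C. Phosphorylation detected by ProQ Diamond stain, 30 min in dark.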

Molecule	MBP Kinase Activity
B1	Negative
B2	Strong
B3	Strong
B4	Negative
B5	Strong
B6	Strong
B7	Strong
B8	Negative
B9	Strong
B10	Strong
B11	Negative
B12	Strong
